Data set [1] deals with Endogenous Ser65-phosphorylated BIMEL in cerebellar granule neurons (UniProt O88498).
Another data set concerns the target T1, Recombinant GST-Pin1 (UniProt Q13526 1-163).
T1 construct: Bait in GST pulldown assays; not shown: glutathione S-transferase (GST) fusion partner
The data set can be described thus: GST-Pin1 pulldown from 293T lysates, anti-FLAG immunoblot. A general note: Immunoblotting shows a protein as a band on a membrane.

T1 sequence (Q13526 whole entry, the tested form may be a part): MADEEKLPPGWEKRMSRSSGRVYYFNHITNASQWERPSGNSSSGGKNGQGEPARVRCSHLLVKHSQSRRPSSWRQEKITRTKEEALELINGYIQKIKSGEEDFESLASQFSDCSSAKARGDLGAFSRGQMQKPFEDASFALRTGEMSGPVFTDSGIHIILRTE
Chain of Endogenous Ser65-phosphorylated BIMEL in cerebellar granule neurons (O88498 whole entry): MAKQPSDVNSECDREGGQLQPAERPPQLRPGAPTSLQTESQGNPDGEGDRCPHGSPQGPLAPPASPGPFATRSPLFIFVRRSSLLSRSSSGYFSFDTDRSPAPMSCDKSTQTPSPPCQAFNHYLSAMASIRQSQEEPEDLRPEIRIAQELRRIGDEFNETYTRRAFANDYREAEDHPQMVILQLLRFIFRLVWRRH

Consider “Endogenous Pin1 in cerebellar granule neurons”, for which the “BIMEL protein levels in granule neurons after Pin1 RNAi lentivirus (immunoblot)” value in data set [1] was 46±1.5% reduction.

B1: FLAG-tagged JIP3 fragment 144-241 (other, UniProt Q9ESN9 144-241, looked up)
chain: ADQISRLEERESEMKKEYNALHQRHTEMIQTYVEHIERSKMQQVGGSGQTESSLPGRSRKERPTSLNVFPLADGMVRAQMGGKLVPAGDHWHLSDLGQ
notes: Expressed in 293T cells; not shown: 3xFLAG tag of the 3xFLAG CMV-7.1 vector
On to B1, for which the binding result with Recombinant GST-Pin1 was “no binding”.
